In patent publication US20150246949A1, “Desmoglein 2 (DSG2) Binding Proteins and Uses Therefor” (UNIVERSITY OF WASHINGTON THROUGH ITS CENTER FOR …, priority 2012, published 2015):
Substitutions are numbered along the chain they refer to. Names and notes keep the numbering of the source.

B1: dimeric Ad3 fiber knob mutant D261N, L296R (designed binder)
chain: MKVSALKEKVSALKEKVSALKEKVSALKEKVSALKEGSGGGSGGGSGGGSNSIALKNNTLWTGPKPEANCIIEYGKQNPDSKLTLILVKNGGIVNGYVTLMGASDYVNTLFKNKNVSINVELYFDATGHILPDSSSLKTDLELKYKQTADFSARGFMPSTTAYPFVLPNAGTHNENYIFGQCYYKASNGALFPLEVTVMLNKRLPDSRTSYVMTFLWSLNAGRAPETTQATLITSPFTFSYIREDD
notes: also called D261, L296R; combination of D261N and L296R
B2: dimeric Ad3 fiber knob mutant N186D, D261N (designed binder)
chain: B1 chain with N113D, R223L
notes: also called combination of N186D and D261N
B3: dimeric Ad3 fiber knob mutant L296R (designed binder)
chain: B1 chain with N188D
B4: dimeric Ad3 fiber knob mutant N186D (designed binder)
chain: B1 chain with N113D, N188D, R223L
B5: dimeric Ad3 fiber knob mutant V189G (designed binder)
chain: B1 chain with V116G, N188D, R223L
B6: dimeric Ad3 fiber knob mutant S190P (designed binder)
chain: B1 chain with S117P, N188D, R223L
notes: also called 5190P [sic]
B7: dimeric Ad3 fiber knob mutant E299V (designed binder)
chain: B1 chain with N188D, R223L, E226V
B8: K217E+F224S (protein)
chain: B1 chain with K144E, F151S, N188D, R223L
B9: dimeric Ad3 fiber knob mutant N186D, D261N, L296R (designed binder)
chain: B1 chain with N113D
notes: also called mutant with mutations in all three areas (N185, D261, L296)
B10: Ad3 fiber knob mutant E248G+K258E without dimerization domain (ligand)
chain: NKLCSKLGNGLTFDSSNSIALKNNTLWTGPKPEANCIIEYGKQNPDSKLTLILVKNGGIVNGYVTLMGASDYVNTLFKNKNVSINVELYFDATGHILPDSSSLKTDLELKYKQTADFSARGFMPSTTAYPFVLPNAGTHNGNYIFGQCYYEASDGALFPLEVTVMLNKRLPDSRTSYVMTFLWSLNAGLAPETTQATLITSPFTFSYIREDD
notes: range 108-319; not shown: N-terminal 6-His tag of pQE30 and linker
B11: Ad3 fiber knob mutant N293S without dimerization domain (ligand)
chain: B10 chain with G141E, E151K, N186S
notes: range 108-319; also called N293S/noDD; not shown: N-terminal 6-His tag of pQE30 and linker
B12: Ad3 fiber knob mutant K217E+F224S without dimerization domain (ligand)
chain: B10 chain with K110E, F117S, G141E, E151K
notes: range 108-319; also called K217E/F224S mutant (non-dimerized form); not shown: N-terminal 6-His tag of pQE30 and linker
B13: Ad3 fiber knob mutant F224L without dimerization domain (ligand)
chain: B10 chain with F117L, G141E, E151K
notes: as for B10

The molecules below were run against T1, human DSG2 on cells (HeLa cells; polarized T84 cells) (human, UniProt Q14126 50-1118) (assay: cell-based or functional assay). Conditions: not given.
T1 sequence: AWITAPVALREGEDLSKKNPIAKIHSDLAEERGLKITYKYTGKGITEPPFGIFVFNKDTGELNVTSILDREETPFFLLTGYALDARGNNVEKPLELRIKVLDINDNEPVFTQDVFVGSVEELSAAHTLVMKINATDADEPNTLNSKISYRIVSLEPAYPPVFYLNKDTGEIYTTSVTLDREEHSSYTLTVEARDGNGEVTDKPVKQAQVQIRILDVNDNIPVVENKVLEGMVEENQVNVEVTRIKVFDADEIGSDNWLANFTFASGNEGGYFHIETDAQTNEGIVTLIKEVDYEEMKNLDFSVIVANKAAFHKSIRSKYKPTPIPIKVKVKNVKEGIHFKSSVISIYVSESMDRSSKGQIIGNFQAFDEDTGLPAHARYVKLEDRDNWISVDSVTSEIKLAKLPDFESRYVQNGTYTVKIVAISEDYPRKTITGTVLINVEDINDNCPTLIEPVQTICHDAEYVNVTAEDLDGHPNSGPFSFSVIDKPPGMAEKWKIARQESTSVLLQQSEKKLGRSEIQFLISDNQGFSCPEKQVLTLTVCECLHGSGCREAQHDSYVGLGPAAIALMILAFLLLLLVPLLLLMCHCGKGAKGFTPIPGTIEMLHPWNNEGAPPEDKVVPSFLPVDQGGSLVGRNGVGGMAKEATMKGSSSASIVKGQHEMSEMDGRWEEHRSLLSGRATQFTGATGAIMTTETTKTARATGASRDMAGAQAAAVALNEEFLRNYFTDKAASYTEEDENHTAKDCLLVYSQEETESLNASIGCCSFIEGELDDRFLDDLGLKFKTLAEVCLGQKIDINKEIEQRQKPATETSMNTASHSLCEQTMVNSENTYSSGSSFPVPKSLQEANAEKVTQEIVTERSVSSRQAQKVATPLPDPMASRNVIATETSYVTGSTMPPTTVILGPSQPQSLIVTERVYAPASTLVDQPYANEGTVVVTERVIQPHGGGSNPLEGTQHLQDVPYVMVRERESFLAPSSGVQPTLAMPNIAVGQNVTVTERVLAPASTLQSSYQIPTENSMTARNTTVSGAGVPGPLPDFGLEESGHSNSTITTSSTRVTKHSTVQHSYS

Row | Molecule | Inhibition of infection in the presence of dimeric knob (JO-1 = 100%)
1 | B1 | 1.5%
2 | B2 | 5.2%
3 | B3 | 5.1%
4 | B4 | 32.7%
5 | B5 | 54%
6 | B6 | 30.9%
7 | B7 | 50.7%

These molecules were tested on polarized colon cancer T84 cells (assay: Transepithelial electrical resistance (TEER) permeability assay). Conditions: dimeric affinity-enhanced mutants; TEER at 4 hours; N=3.
Format: cell-based
Experimental: FIG. 5. Correlation of reduced DSG2 binding with the ability to open epithelial junctions. A) Transepithelial electrical resistance (TEER) measured on polarized colon cancer T84 cells. Cells were cultured in transwell chambers until the TEER was constant, i.e. tight junctions had formed. A total of 5 μg of dimeric Ad3 fiber knobs in PBS was then added for 1 hour to the apical chamber. TEER was measured at the indicated time points. N=6. For time points 1.5 and 4 hours the difference between JO-1 vs D261N and N186D was significant (p<0.01). The arrows indicate the addition and removal of Ad3 fiber knobs. B) Enhancement of irinotecan therapy. A total of 4×10^6 A549 cells were injected subcutaneously into CB17-SCID/beige mice. Once the tumor reached a volume of ˜100 mm^3 (day 15 after implantation), the mice were injected intravenously with 2 mg/kg JO-1, E299V, N186D, or PBS, followed by an intravenous injection of irinotecan (37.5 mg/kg) one hour later. The treatment was repeated on day 25. N=5. […] The difference between “irinotecan” vs “JO-1+irinotecan” was significant (p<0.01) from day 20 on.
FIG. 9. Analysis of dimeric Ad3 fiber knob mutants with increased affinity to DSG2. A) Competition of Ad3-GFP virus infection on HeLa cells with dimeric affinity-enhanced mutant Y250F and JO-1 (dimeric wt Ad3 fiber knob). The experimental setting is as described for FIG. 3C. left panel: percentage of GFP positive cells. Right panel: mean fluorescence intensity. N=3. The standard deviation was less than 10%. B) Competition of Ad3-GFP virus infection on HeLa cells by Ad3 knob mutants with enhanced DSG2 binding but without dimerization domain. 1.5×10^5 HeLa cells were seeded into 24 well plates. Cells were incubated with the Ad3 knob mutants at the increasing concentrations for one hour at room temperature. 100 pfu/cell of Ad3GFP virus were then added and GFP expression was analyzed 18 hours later. C) TEER on colon cancer T84 cells. The experimental setting was the same as for FIG. 5A. The TEER at 4 hours is shown. N=3.
A total of 5×10^5 T84 cells were seeded in 12 mm transwell inserts (PET membrane, with 0.4 μm pore size (Corning, N.Y.) and cultured for >14 days until transepithelial electrical resistance (TEER) was stable. Culture medium was changed every 2-3 days. The cells were exposed to DSG2 ligands (20 μg/ml) in adhesion medium (DMEM, 1% FBS, 2 mM MgCl2, 20 mM HEPES) for 15 min at room temperature and TEER was measured and calculated as described elsewhere (39).

Row | Molecule | TEER compared to JO-1
8 | B8 | significantly higher

Each molecule was assayed against T2, Recombinant human DSG2 protein (Leinco Technologies) (human, UniProt Q14126 50-609) (assay: Western blot of dimeric knob (trimer band), soluble recombinant DSG2 as probe, anti-DSG2 mAb). Conditions: not given.
T2 construct: also called soluble DSG2; soluble recombinant DSG2
T2 sequence: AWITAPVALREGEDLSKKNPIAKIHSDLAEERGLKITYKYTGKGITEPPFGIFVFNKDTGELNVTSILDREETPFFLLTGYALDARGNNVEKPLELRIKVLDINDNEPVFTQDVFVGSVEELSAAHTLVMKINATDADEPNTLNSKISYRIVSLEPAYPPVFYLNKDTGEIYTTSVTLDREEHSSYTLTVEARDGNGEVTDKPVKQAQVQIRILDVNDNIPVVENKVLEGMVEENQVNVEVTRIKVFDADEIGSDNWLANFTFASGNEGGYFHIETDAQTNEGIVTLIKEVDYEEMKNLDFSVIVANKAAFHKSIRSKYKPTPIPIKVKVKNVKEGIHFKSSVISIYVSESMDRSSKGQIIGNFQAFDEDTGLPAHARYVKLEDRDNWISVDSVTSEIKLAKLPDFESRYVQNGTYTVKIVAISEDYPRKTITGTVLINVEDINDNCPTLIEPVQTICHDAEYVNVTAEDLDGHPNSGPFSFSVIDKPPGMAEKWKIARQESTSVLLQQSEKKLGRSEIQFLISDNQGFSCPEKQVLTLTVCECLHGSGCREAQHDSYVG

Row | Molecule | Western blot residual DSG2 binding (wtAd3 knob = 100%)
9 | B1 | 7%
10 | B9 | 0%
11 | B2 | 7%
12 | B3 | 3.6%
13 | B4 | 5.3%
14 | B5 | 14%
15 | B6 | 7.1%
16 | B7 | 20%

Each molecule was assayed against T1, human DSG2 on cells (HeLa cells; …) (assay: attachment of 3H-labelled Ad3 virus (competitor) to HeLa cells pre-incubated with the dimeric knob). Conditions: not given.

Row | Molecule | Inhibition of attachment in the presence of dimeric knob (JO-1 = 100%)
17 | B1 | 20.1%
18 | B2 | 23.5%
19 | B3 | 73.7%
20 | B4 | 56.5%
21 | B5 | 81%
22 | B6 | 73.4%
23 | B7 | 97.3%

These molecules were tested against T2, Recombinant human DSG2 protein (Leinco …) (assay: SPR (BIAcore 3000), DSG2 immobilised on the sensor chip, knobs injected at 2.5 to 10 µg/ml, BIAeval). Conditions: not given.

Row | Molecule | Kd | koff | kon
24 | B10 | 49.4 nM | 0.00147 s⁻¹ | 29800 M⁻¹ s⁻¹
25 | B11 | 73.2 nM | 8.7e-05 s⁻¹ | 1190 M⁻¹ s⁻¹
26 | B12 | 53.9 nM | 0.00317 s⁻¹ | 58800 M⁻¹ s⁻¹
27 | B13 | 78.7 nM | 0.00269 s⁻¹ | 34200 M⁻¹ s⁻¹
